The chains are these.
B1: HDV Ribozyme (parent)
chain: GGCCGGCAUGGUCCCAGCCUCCUCGCUGGCGCCGGCUGGGCAACAUUCCGAGGGGACCGUCCCCUCGGUAAUGGCGAAUGGGACCCA

The data set covers variants of B1. Put plainly: self-cleavage, relative activity (ratio to wild type); higher = more cleavage; co-transcriptional.
For the variant G29A G52A, the self-cleavage worked out at 0.0554.
For the variant U23A U37G, the self-cleavage came out at 0.415.
Consider U20C A70C, for which the self-cleavage was 0.246.
Regarding U65C C66A, the self-cleavage was 1.18.
For C22A A70C the value was 0.17; for C75A A77C, 0.237; for A8C G34C, 0.178.
For A42U C61G the value was 0.77; for A70G G82A, 0.394.
Take C21A A45U: the self-cleavage came out at 0.0923.
For C49G A77G the value was 0.536; for C26G A87U, 0.976; for C24A C26U, 1.05.
U27A G73C: the self-cleavage stood at 0.0639.
For U47A A70U, the self-cleavage was 0.697.
For G11U G82A the value was 0.0678.
For the variant G5C G38C, the self-cleavage worked out at 0.108.
For G2A G50U the value was 0.0779.
For the variant G50C G73U, the self-cleavage was 0.246.
For G6A G38U the value was 0.0923; for G25U U37G, 0.0489; for A42U A87U, 0.56.
For G10U C84U the value was 0.409; for G39C G68U, 0.246; for G59U C62G, 0.748.
On to G40A G80U, for which the self-cleavage was found to be 0.217.
For U23C C58G the value was 0.673; for C3U C18A, 0.0782.
For C19A G73C the value was 0.058; for G11U G31C, 0.146.
For C15G C30A the value was 0.147; for G38A G81C, 0.0712; for C61A C75G, 0.177.
On to C26U C58G, for which the self-cleavage turned out to be 0.831.
Turning to A8G G54A, the self-cleavage worked out at 0.877.
For G50U A78C the value was 0.373; for G52C C86G, 0.997; for G39U A83C, 0.157.
For U20A G31U the value was 0.0978.
With C75A C85A, the self-cleavage amounted to 0.175.
For A42C G80U the value was 0.219.
For C32U U65C the value was 0.91.
Take U20C A83C: the self-cleavage amounted to 0.133.
Regarding G74U A83G, the self-cleavage was 0.256.
As to C4A G28U, the self-cleavage amounted to 0.0692.
For C18U G28A the value was 0.0346; for C26U G55U, 0.929; for C14U C84G, 0.914.
For G31U A43C the value was 0.0504.
Take G17C G53A: the self-cleavage turned out to be 0.281.
In the case of U72G A87U, the self-cleavage was determined as 0.735.
Turning to G17A U27G, the self-cleavage was 0.485.
For C41U G81U the value was 0.205; for G2A G54U, 0.127; for G28C G81C, 0.0875.
For C4U U72A the value was 0.415; for C4G C57A, 0.374; for A8G C48U, 1.26.
For G10U C13A the value was 0.0332.
On to G39A G80U, for which the self-cleavage came to 0.178.
For A16U G17C the value was 0.68; for C63U G80U, 0.224.
For C30A U46G the value was 0.256; for G25C G54U, 0.0652; for C18G G55U, 0.0811.
Regarding C36U A83G, the self-cleavage is 0.56.
Take U27C U46C: the self-cleavage was 0.138.
For C4A U72G the value was 0.111.
For G6U C13G the value was 0; for C32U A51C, 0.541.
For U9C C19U the value was 0.208.
As for G5A G34U, the self-cleavage was found to be 0.0282.
For C32G A77U the value was 0.123; for C41G C64A, 0.853.
For U60C A77U the value was 0.831; for C4A A83C, 0.232; for U69G G82A, 0.453.
For the variant G40C G82C, the self-cleavage stood at 0.188.
For G40C G82A, the self-cleavage was 0.233.
For C57G U72C the value was 0.587.
For A16U G54A the value was 0.795; for G38C G55C, 0.46; for G6U C57U, 0.573.
As for G35U C48A, the self-cleavage turned out to be 0.49.
For C18U G40U the value was 0.314.
For the variant C32G C57G, the self-cleavage came out at 0.225.
For A8G G10U the value was 0.431.
For G52U G68U the value was 0.415; for U47G C58A, 1.48.
As for G28U C57U, the self-cleavage amounted to 0.208.
For C26G G73A the value was 0.57.
For C19A A56C the value was 0.173; for G10U C44G, 0.296; for C3A C63G, 0.285.
For C7G G25U the value was 0.0831.
G73A C86G: the self-cleavage stood at 0.609.
For C64G G81A the value was 0.222.
For C21U G82U the value was 0.115; for U23C A77C, 0.256.
For G2A C22U the value was 0.0183; for U69A C84U, 0.639.
C18U A77C: the self-cleavage turned out to be 0.342.
For G52C A70C the value was 0.85.
G29A G40A: the self-cleavage was found to be 0.237.
For U12A C13A the value was 0.0378; for G80U G82A, 0.0297.
For G50U A56C the value was 1.18; for C19G A43U, 0.0594; for G38C G54C, 0.237.
In the case of A16C G28C, the self-cleavage was 0.119.
On to C7G C63A, for which the self-cleavage stood at 0.172.
For G39A C86G the value was 0.534.
For G6U C36G the value was 0.
For G17U G35C the value was 0.125; for C13A G59U, 0.356.
On to G2C C85U, for which the self-cleavage worked out at 0.0287.
For G31C A87G the value was 0.226; for G59C G68A, 0.906.
For A43C A78G the value was 0.0978; for C62U G68A, 0.946; for C21G G40A, 0.0346.
Take A16G G34A: the self-cleavage came out at 0.17.
For C18G A45C the value was 0; for G55A C86G, 0.818; for G31U C41G, 0.0437.
For U60A U65G the value was 1.09.
C21G A56U: the self-cleavage was 0.116.
For A16G C75U the value was 0.178; for C48G A51G, 0.997.
For U72A G76C the value was 0.65.
In the case of C24U C44A, the self-cleavage came out at 0.277.
Consider C58U C64A, for which the self-cleavage came to 0.867.
For C44G C75G the value was 0.256; for G59A C62G, 0.502; for C19A G68U, 0.178.
A43G U60A: the self-cleavage was 0.594.
For G31C C75A the value was 0.13; for C26A G59C, 0.944.
For C7U G68A the value was 0.969; for G54U C66A, 0.796.
For C21G G54U the value was 0.0875; for C30G C62U, 0.185.
With G10U A56U, the self-cleavage is 0.893.
For A71C C75U the value was 0.199; for G6C U9G, 0.208.
For C75U A77C the value was 0.208.
Regarding C7A G31A, the self-cleavage was 0.87.
Take G25C G28A: the self-cleavage was found to be 0.0297.
For U23A U69C the value was 0.942; for C13U G52C, 0.639.
For G2U U46C the value was 0.0213; for C14G C86G, 0.604.
On to C19A C75A, for which the self-cleavage is 0.185.
For C19G U79A the value was 0; for C44G C49A, 0.665.
Consider U23G G82C, for which the self-cleavage came out at 0.222.
For U46C G59A, the self-cleavage is 0.776.
For C33A U47G, the self-cleavage amounted to 0.378.
With A43U A71U, the self-cleavage stood at 0.565.
Regarding C33U C63G, the self-cleavage is 0.698.
C41A A71U: the self-cleavage came out at 0.665.
U9C C30G: the self-cleavage was found to be 0.0462.
On to U20C G40C, for which the self-cleavage is 0.0396.
For C24U C49A the value was 0.739.
Take C66A U69C: the self-cleavage worked out at 1.1.
For G76A C84A the value was 0.958; for C24U U37G, 0.138.

Values taken from the RNAGym collection of RNA variant scans (doi:10.7554/elife.80360).
